Key:
HLA-B*08:01 = assay: IEDB peptide-MHC binding, purified MHC/competitive/radioactivity; filed as Kd, often an IC50 or EC50 that approximates it; ≥ and ≤ were set here for values at or beyond the usual limits of such assays
HLA-B*44:03 = assay: as above
HLA-B*44:02 = assay: as above
HLA-B*40:01 = assay: as above; conditions: source organism: Dengue virus 3 Martinique/1243/1999
HLA-A*32:01 = assay: as above
HLA-A*26:01 = assay: as above
HLA-A*29:02 = assay: as above
HLA-A*30:02 = assay: as above
HLA-A*30:01 = assay: as above
HLA-A*01:01 = assay: as above
HLA-A*24:02 [1] = assay: as above
HLA-A*23:01 = assay: as above
HLA-A*24:02 [2] = assay: IEDB peptide-MHC binding, purified MHC/competitive/fluorescence; ≥ and ≤ were set here for values at or beyond the usual limits of such assays; conditions: source organism: Vaccinia virus WR
HLA-A*02:01 = assay: as above; conditions: source organism: Vaccinia virus WR
HLA-A*33:01 = assay: IEDB peptide-MHC binding, purified MHC/competitive/radioactivity; filed as Kd, often an IC50 or EC50 that approximates it; ≥ and ≤ were set here for values at or beyond the usual limits of such assays
HLA-A*03:01 = assay: as above; conditions: source organism: Vaccinia virus WR
HLA-A*31:01 = assay: as above
HLA-A*11:01 = assay: as above; conditions: source organism: Vaccinia virus WR
HLA-A*68:01 = assay: as above; conditions: source organism: Vaccinia virus WR
[3] = source organism: Dengue virus 4 Philippines/H241/1956
[4] = source organism: Dengue virus 3 Martinique/1243/1999
[5] = source organism: Dengue virus 2 Jamaica/1409/1983
[6] = source organism: Vaccinia virus WR
[7] = source organism: Mammarenavirus guanaritoense
[8] = source organism: Mammarenavirus caliense
[9] = source organism: Mammarenavirus choriomeningitidis
[10] = source organism: Mammarenavirus juninense
[11] = source organism: Mammarenavirus lassaense
[12] = source organism: SARS coronavirus Tor2
[13] = source organism: Mammarenavirus machupoense
[14] = source organism: Dengue virus 4 Dominica/814669/1981
[15] = source organism: Dengue virus 2 Peru/IQT2913/1996

RRVTRKHMIL
Kd (HLA-B*08:01; [3]): 64 nM

METLLLLGLM
Kd (HLA-B*44:03; [4]): 2650 nM
Kd (HLA-B*44:02; [4]): 62.4 nM
Kd (HLA-B*40:01): 1020 nM

KTPVESWEEV
Kd (HLA-A*32:01; [5]): 1620 nM

TVYAKFASL
Kd (HLA-B*08:01; [6]): 1.64 nM

PTMEIEDQEY
Kd (HLA-A*32:01; [7]): ≥ 49800 nM
Kd (HLA-A*26:01; [7]): 1140 nM
Kd (HLA-A*29:02; [7]): 11300 nM
Kd (HLA-A*30:02; [7]): 8840 nM
Kd (HLA-A*30:01; [7]): ≥ 70400 nM
Kd (HLA-A*01:01; [7]): 17.2 nM

PYENLLYKI
Kd (HLA-A*24:02 [1]; [8]): 253 nM
Kd (HLA-A*29:02; [8]): ≥ 52400 nM
Kd (HLA-A*23:01; [8]): 9.86 nM

DTSNTGRAEL
Kd (HLA-A*32:01; [9]): ≥ 69900 nM
Kd (HLA-A*26:01; [9]): 16000 nM
Kd (HLA-A*29:02; [9]): ≥ 71400 nM
Kd (HLA-A*30:02; [9]): 7180 nM
Kd (HLA-A*30:01; [9]): ≥ 24500 nM
Kd (HLA-A*01:01; [9]): ≥ 50200 nM

NVEYRFLVI
Kd (HLA-B*08:01; [6]): 235 nM
IC50 (HLA-A*24:02 [2]): 13700 nM
IC50 (HLA-A*02:01): ≥ 144000 nM

KAEVSMHEV
Kd (HLA-A*26:01; [10]): ≥ 77900 nM
Kd (HLA-A*24:02 [1]; [10]): ≥ 77500 nM
Kd (HLA-A*29:02; [10]): ≥ 78900 nM
Kd (HLA-A*30:02; [10]): ≥ 51900 nM
Kd (HLA-A*23:01; [10]): ≥ 68600 nM
Kd (HLA-A*01:01; [10]): 17500 nM

KTWMINIMI
Kd (HLA-A*32:01; [6]): ≥ 77800 nM

RTYCIEASI
Kd (HLA-A*32:01; [3]): 19.2 nM

RVYVGNVAW
Kd (HLA-A*32:01; [6]): 1.08 nM

GFKKRVNVF
Kd (HLA-B*08:01; [6]): 110 nM

RYWYLNHTV
Kd (HLA-A*26:01; [11]): ≥ 77900 nM
Kd (HLA-A*24:02 [1]; [11]): 76.8 nM
Kd (HLA-A*29:02; [11]): ≥ 38600 nM
Kd (HLA-A*30:02; [11]): 0.603 nM
Kd (HLA-A*23:01; [11]): 15.3 nM
Kd (HLA-A*01:01; [11]): ≥ 28200 nM

FFVYENAFL
Kd (HLA-A*26:01; [12]): ≥ 32700 nM
Kd (HLA-A*24:02 [1]; [12]): 9050 nM
Kd (HLA-A*29:02; [12]): ≥ 107000 nM
Kd (HLA-A*30:02; [12]): ≥ 96800 nM
Kd (HLA-A*23:01; [12]): 6780 nM
Kd (HLA-A*01:01; [12]): ≥ 78100 nM

FFKCFRYVF
Kd (HLA-B*08:01; source organism: Vaccinia virus Copenhagen): 10.9 nM

FSAVGNICY
Kd (HLA-A*26:01; [12]): 409 nM
Kd (HLA-A*24:02 [1]; [12]): ≥ 51600 nM
Kd (HLA-A*29:02; [12]): 7.97 nM
Kd (HLA-A*30:02; [12]): 28.5 nM
Kd (HLA-A*23:01; [12]): ≥ 77800 nM
Kd (HLA-A*01:01; [12]): 0.34 nM

STLIFFVII
Kd (HLA-A*32:01; [6]): 17.8 nM

AILLVAVSF
Kd (HLA-A*32:01; [5]): 12800 nM

RVRNIIASI
Kd (HLA-A*32:01; [6]): 1.04 nM
Kd (HLA-B*08:01; [6]): 21.7 nM
Kd (HLA-A*30:01; [6]): 0.103 nM

NDLKYSWKTW
Kd (HLA-A*32:01; [3]): 8890 nM
Kd (HLA-B*44:02; [3]): 2720 nM

CWFADTNLI
Kd (HLA-A*24:02 [1]; [13]): 101 nM
Kd (HLA-A*29:02; [13]): 1290 nM
Kd (HLA-A*23:01; [13]): 88.6 nM

SIHEKFWPL
Kd (HLA-B*08:01; [6]): 1.36 nM

MWSFNPETNI
Kd (HLA-A*26:01; [12]): ≥ 39100 nM
Kd (HLA-A*24:02 [1]; [12]): 551 nM
Kd (HLA-A*29:02; [12]): 13300 nM
Kd (HLA-A*30:02; [12]): ≥ 24700 nM
Kd (HLA-A*23:01; [12]): 407 nM
Kd (HLA-A*01:01; [12]): ≥ 70400 nM

LVKESMASLK
Kd (HLA-A*33:01; [6]): 394 nM
Kd (HLA-A*03:01): 4.1 nM
Kd (HLA-A*29:02; [6]): ≥ 53600 nM
Kd (HLA-A*31:01; [6]): 64.5 nM
Kd (HLA-A*11:01): 11.3 nM
Kd (HLA-A*68:01): 0.437 nM

MFGGVSWMIR
Kd (HLA-A*32:01; [14]): 1430 nM
Kd (HLA-A*33:01; [14]): 14.8 nM
Kd (HLA-A*31:01; [14]): 7.52 nM

LFARTRSMW
Kd (HLA-A*26:01; [12]): ≥ 77900 nM
Kd (HLA-A*24:02 [1]; [12]): 146 nM
Kd (HLA-A*29:02; [12]): 10200 nM
Kd (HLA-A*30:02; [12]): ≥ 83300 nM
Kd (HLA-A*23:01; [12]): 488 nM
Kd (HLA-A*01:01; [12]): ≥ 78100 nM

LVSTQEFRY
Kd (HLA-A*26:01; [12]): 1760 nM
Kd (HLA-A*24:02 [1]; [12]): 12700 nM
Kd (HLA-A*29:02; [12]): 6.84 nM
Kd (HLA-A*30:02; [12]): 5.95 nM
Kd (HLA-A*23:01; [12]): 10900 nM
Kd (HLA-A*01:01; [12]): 30.8 nM

TELRYSWKTW
Kd (HLA-A*32:01; [15]): 2420 nM
Kd (HLA-B*44:03; [15]): 33 nM
Kd (HLA-B*44:02; [15]): 7.9 nM

SMLSIFNIV
Kd (HLA-B*08:01; [6]): ≥ 77700 nM

RLGYILEEI
Kd (HLA-A*32:01; [14]): 1110 nM

HTSSMRGVY
Kd (HLA-A*26:01; [12]): 4.78 nM
Kd (HLA-A*24:02 [1]; [12]): ≥ 77600 nM
Kd (HLA-A*29:02; [12]): 8.21 nM
Kd (HLA-A*30:02; [12]): 0.131 nM
Kd (HLA-A*23:01; [12]): ≥ 77800 nM
Kd (HLA-A*01:01; [12]): 85.2 nM

— the Immune Epitope Database (IEDB)
